Data published in the domain aggregation screens of Martell et al. (2025).

Assay: soluble fraction after stress (log2 fold change); higher = more stays soluble; pooled small domains, quantitative proteomics
Conditions: stress: pH 4
Summary of the method: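 Aggregation propensity is read out as the fold change in how much of each domain remains soluble after acid stress. The custom small-domain libraries were pooled, held at pH 4 and analysed with high-throughput quantitative proteomics. On the log2 scale used, higher values mean more of the domain stayed soluble.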

Going from “HMGIERTNADTSFSVNVYGKELIITSNKPLVVNIYAIDGTLVRTEQVTIGVNTVSGLPSGIYVVGQQKVVI” to “HMGIIVDMSKIKQMLQLSEAGHSNRKIALELGINKETVNNYMQLIRNGRLDIRQLLKMDDPELERRFHA”, the “soluble fraction (log2)” value rises from -0.752 to 0.23.

“HMGIKLSDRQMQIVEIVKSQQPITSEQVAERLNLTRAALRSDLSILTMAGILEARPKVGYSLTGR” and “HMGILPDDVKLNIKEAKKIGFPIMLKAIHGGGGRGMMIVQSEDEFADAMKITKTEAKNSFGNGDLYFEKFF” are within 0.2 log units of each other in “soluble fraction (log2)” value: 0.14 for the first, 0.0153 for the second.

Going from “HMGITRQQALQQINQSASPKKILNASLGKRGSEFVWDIGYLSKSGKLNYVTYSFRSGEQLNAIKN” to “HMGIVAGGTQSIATLRAIDTTDAQLYPDKILINVEDAGLYRLDRQSTATDDGNQVIKPTVGVGRWLKMTS”, the “soluble fraction (log2)” value rises from -0.504 to 0.0998.

Going from “HMGIVVDGTMTLEGVAERYGMSVGELARVIGVPPEYSNERLGRLRKSYEFEMDDIRIYIIQKQ” to “HMGKAYMVPDVKNKSVNQAQLLLADKHMNGVVVDSSYVKELPAGIVLDQTPVGGMKVKEGRTVYLTINSD”, the “soluble fraction (log2)” value rises from -1.31 to 0.0742.

Compared with “HMGKDIYLTSGWVEKFDELNEFSNSVDNYDRLNQFGMYENAIIGDTGVIKITDEMIFDLYEKIQVPVEAGP”, “HMGKEDLTAAIKKMTLNDKLDIHKIVANFQTNDSEEVITAVKWLMENNYLLKIKNNYTWNTKEK” is higher in “soluble fraction (log2)” value: -1.04 for the first, 0.22 for the second.

Compared with “HMGKHYLLKDDNGTITIYKILEDGTQEVYEKTEISTTYLPQTDNIGIKQGIRVNGDEALNELIENF”, “HMGKKGPELSENEKSIFSILSKSGSMDLTTLKEASGLSNKQWDKGIKGLGKHGLTKVIKTEDALLVEVV” is higher in “soluble fraction (log2)” value: -0.821 for the first, 0.0105 for the second.

“HMGKKYVPGMAVKLSAVPLYAASTSKVPSTHVTGTYYLWDDEVVRGRLRITNLKSRVGISGQVTGWIDKDR” and “HMGKNIQAIRYKNNMTQDQVVAKLNLMGISITKSTYAKLETNRMNIKASELVALAKLFHTDINAFFSG” are within 0.2 log units of each other in “soluble fraction (log2)” value: 0.0244 for the first, -0.0779 for the second.

First: HMGKNYYEILGITKSASEEQVRKAFRGLAMEWHPDRNRSADSEERFKEINEAYQVLIDPKKRQMYDQYGR
Second: HMGKPSSEELEALGRRTLEENVDVVEEILGGRDPKGKKIKYLEGLMMRALRGQETPEAVRRTLEELIFK
The “soluble fraction (log2)” value of the first is higher: 0.349 for the first, 0.00684 for the second.

Compared with “HMGKRGKEMQTAVLAILRASDRPYSAYELLESLKDIYPKIAPPTVYRALAALTQRGQIRRLESLNAFI”, “HMGKRKDFTYTGNYFSEYKNQTFPSLSSFLKLVGKYENYGTIKRRVRFGWDIDEAILRENIN” is lower in “soluble fraction (log2)” value: 0.22 for the first, -0.231 for the second.

“HMGKSKAAQSSLVRSIMHQISDKNRGPMPLSEIIDRASIQSIDEAIVRSLVSRMKEQGEIYEPSLGTYEF” and “HMGKTIIQLATDYLIKNMQPKSLHDIESYVLTRKKIKKSSIGAILLSKPNIFGRTEDGLFGLRIWNNFQYT” are within 0.2 log units of each other in “soluble fraction (log2)” value: -0.163 for the first, -0.14 for the second.

Compared with “HMGKTRSTDRTRRAILDAASDLMGKHGTSVSLARIAEAAGMSKGGLLHHFPSRNDLIRALGED”, “HMGKVNTRNRNEGKFYKNGKKKPANWEYRFEAAPVNGKRQQISDAGYPTEKAAYEAGIAAYEKYNSAGSVN” is lower in “soluble fraction (log2)” value: 0.396 for the first, 0.0128 for the second.

Compared with “HMGKVTILSNPVKDALVIMGLHNAETIDVRLFDNTGRLVMQGSQSRMDISSLSPGLYILQVNGKILKVIK”, “HMGLASEVKTEDVLNEEKYDFEPDLIGNNNEAIYQNKQTGSYVLFDRNQNKVTKVLSAGEVLNHSKYNE” is higher in “soluble fraction (log2)” value: -0.222 for the first, 0.342 for the second.

Going from “HMGLDQNTLDRVDDINDTLATGIEIGPETRGTIEELNETLANGLKAGFDEETLARVDELLRVVEDGLK” to “HMGLGQRIKARREALGLSQARLGEAVGVSLQAVSNWERDEYLPDTARLPLIARALGLTPGQLME”, the “soluble fraction (log2)” value rises from -1.15 to 0.11.

First: HMGLKDTEVYMPDVRGLIEEEAQTKLKASFLTMKVSYTSSDEVKKGYVISQAPSADSVVLKGASVTVIVS
Second: HMGLLVPELTAEENVSLAAMIAGVPRQQARSISADLLNRLGLGQMLDRRMGEMSGGQAQRVAIAPIYGKF
The “soluble fraction (log2)” value of the first is higher: 0.112 for the first, -0.129 for the second.

Compared with “HMGLNVSYRMDGENVVETIIFSGATMIRTVTPTGTMTIKTIENGSTSTAKVNADYSVYKKIYEAQY”, “HMGLPLETVVTHATKLEIVRDGRVSGSIGLSAGVKVDVIALEGDNLQVRYRSLSGRVPVAHTGLAALA” is higher in “soluble fraction (log2)” value: -1.03 for the first, -0.533 for the second.

Going from “HMGLPPIATGVNDNMSFSQAFAAARAEVGAGGAFEWHGRVYGTYYKNEWDGMSAQERHDFEIAAIRGS” to “HMGLSIPLMGAKASDIEISTLNDEVQRKLKIIVKEQGHENLQRVVPLPSEAREIQAHFINGRLHLR”, the “soluble fraction (log2)” value rises from -0.0114 to 0.214.

Going from “HMGLYPYSGTPADNQEANERRIFDIYSTHLERIFSDFSGATLRTKRLVLRLMQELVHSDPVRMAGILDEL” to “HMGMAQELMESRLTAVFTSGKDQLAVLQRKDGSTLKLGADSKPWRIESFDGRKAVFVSADQQRVERLL”, the “soluble fraction (log2)” value falls from 0.1 to -0.599.

First: HMGMGIGQIIKEKRTALKMTQNELAERLGVSQQSVTGWENNAAVPRESAVRGMMDIFGLSRNELFGEP
Second: HMGMMTLGQRIAQYRKAMGISQEELGGRLGVSRQAVSKWETDAAAPDMENLLALAREFGVSVAELTETP
The “soluble fraction (log2)” value of the first is higher: 0.0969 for the first, -0.11 for the second.

First: HMGMTRPLFVTDPGLVRIGLVSPIFEKLGSGKLSPQLFDQVKEDPPEQTVFDGVEFARETGIDGVIGFG
Second: HMGMVDKSMYSRYDVGDLVKVLRGPLEGSEGHITEINTDTGTVKVETVFFGRSTVVEVDFSEIDK
The “soluble fraction (log2)” value of the first is higher: 0.0343 for the first, -1.35 for the second.

First: HMGNAQELQKKLEGLKGISGIEKLESDHYAEKYLVRITQPVDHKNPAAGTFTQRVIVAHVGFDRPTILVT
Second: HMGNHRNMSAEEEAAILAPFKARAEAGELVEISEIAKAYQSAVDHPISRGQIYFVLHRHGWRKV
The “soluble fraction (log2)” value of the first is higher: 0.318 for the first, -0.638 for the second.

First: HMGNIALAIARFREMIAEDPNLQPVRLHLAMALMADHQDEAARGQLEKLRSDQLPDDIRKIVDDALAALR
Second: HMGNIIITPNPASDFIKIISNSPIIKFGFYDIYGNTINKKFNDNSINISDLPVGMYLINLNERYFKLLK
The “soluble fraction (log2)” value of the first is lower: -0.487 for the first, 0.021 for the second.

Compared with “HMGNIITQEAAVKLAQDRVPNATLVKIEYDFDDGRPVYEGELREGRWEYEFEIDAATGEFLKWEKD”, “HMGNKWKPIILYLLSNGSMRFGMLNALIPTISKKVLTNQLKELENDGLLLRQSFAEIPPRVEYSLTEKA” is higher in “soluble fraction (log2)” value: -0.163 for the first, 0.165 for the second.

First: HMGNLASGAYEQIKRRILSLEYLPGSILQERGLAEELGISRTPVREAIHRLSQEGWLKINSRKNIRVR
Second: HMGNLASRVAEQLLDKMRGDSLVPGTRLPSEIAMAKHFGVSRTVMREAIARLKADGLLETRRGSGAFVLAT
The “soluble fraction (log2)” value of the first is lower: -0.482 for the first, -0.0652 for the second.

Going from “HMGNLEENFRLKAGTEDGAWEFIRYHLGKLPVVNESNGTAIVNAERQAFLLFDRMVAFHIQRGVMVPLSAP” to “HMGNLVDGINKKLTHVRDSLPEGYTLDEFKSAFQQQYPAAYDAYEGDKGKQFDKWLGNVIQSLPKK”, the “soluble fraction (log2)” value rises from -0.159 to 0.137.

Compared with “HMGNNSIDIKDVIYNLVEISQLQAFDIVKHFKTWENLVNKPDELDTVIDGDSDIVDRIKYKIKSLS”, “HMGNQALSSVLSDIAGIGPVKTKELLRVYPDLDSLRQAPVEEVAKVKGIGRQLAQKIHDHFSSR” is higher in “soluble fraction (log2)” value: -0.568 for the first, -0.0357 for the second.

Going from “HMGNRWENLISNKMIDDVDEELLRKYIAQAHDAGRIAISYTDRKTVLNQLELTDGDRLLNAGKVLFSD” to “HMGNTTEVLVATQDVKANTKIKESMFTTERVDTASLPDNYLSADSAKDVVGYYTYIGFTKGSVISKSNIAT”, the “soluble fraction (log2)” value rises from -0.657 to 0.0364.

Compared with “HMGNVRSWKGWTSAGGTRVQMRQGDSINSMARRYGVPIQAIVAVNGIDDPAKVQPGQSVIIPTYVY”, “HMGNWEQQLRSWADGELATGKQDILTTAVPAFERALIETALSHTNGRKRDAAELLGWGRNTLTRKLKELGM” is lower in “soluble fraction (log2)” value: 0.118 for the first, -0.46 for the second.

First: HMGNYEEAILAFEAAIKIDPKNADAYRKLAEAYEKTGDEDAALRTLETGAEATGDRELADLAEKKRQELDA
Second: HMGPASTGAHQLGLKPGDEVTHRAWGEGVVTSTTGEGDRAEAVVDFDAVGEKRLLLAWAPLER
The “soluble fraction (log2)” value of the first is higher: 0.22 for the first, -0.705 for the second.

“HMGPDTVDRTRRFKWVDNEVVVNFGKNAGRTLRDLAENDPGFLRWIVRSDFSDEVRTIANDALMGKFPTRK” and “HMGPEAFPVPYVVDIELDRAIYVIEQSGFIVGQKLEANDNNVPRGFVISQNPPAGTKLGPESIVDLVVSS” are within 0.2 log units of each other in “soluble fraction (log2)” value: -0.151 for the first, -0.281 for the second.

First: HMGPLDIAQLKSDFLGGDAQLARRAWDQLATKAGDEGRDFLISSLGSSDPQIRNRVALGIHES
Second: HMGPLTMGQRIVRLRTQAGLSQDALAEQLGVSRQSVSKWETDGSVPDLDRLVKLSKVFGVTLDELVKG
The “soluble fraction (log2)” value of the first is lower: -0.152 for the first, at least 0.43 for the second.

First: HMGPPAVGAKLQVLRQARKLSLDELSRRAGVSKSMLSQVERNLANPTVAVLWRLATALGVGLADFLSP
Second: HMGPRVSAGPGRHRVQPGDTLDDIAARYRVSSRDLMLVNGLRNANHVEAGQTLKLPSNAVIA
The “soluble fraction (log2)” value of the first is lower: -0.524 for the first, at least 0.43 for the second.

“HMGPSLIRIASNPVAEVFIDGTRVGTTPFEMPADGTLKTVRLTAKDHDDLVVPLRSMKSMEIMLTLRRI” and “HMGPTLTDEEEVVLNLLEKNHPVLLSELKENAGLSNKKWDKAIKGLSAHKLAKVTKTDDGLFVHLS” are within 0.2 log units of each other in “soluble fraction (log2)” value: -0.136 for the first, -0.167 for the second.

Going from “HMGPTPTSAQLTEAKRLRTKLDDLNPELAERLWSEHREPYTETQYQTLIEKLAAEVQSAEGEIGR” to “HMGPVRRDLEINGRMVPLTIREHARATRITLRIEPGGQALRLTIPPGLPTREVDSFLTRHHGWLMTKLAHI”, the “soluble fraction (log2)” value falls from 0.351 to 0.0131.

Going from “HMGPWTETAAKGDAVSKRMLITWLQENADAEFLAAQKLTGQATSVAKRVTKDQLVELYLSVTTAA” to “HMGQAAHYEGVKGDGESDTDVISRVLTAAGAEAQKDDIFVVKELIAGGKYSYTAYVYDGSVWAAM”, the “soluble fraction (log2)” value falls from -0.149 to -0.502.
